Columns and labels:
Assay in all cases: MSD specificity profiling, coated protein, Camille at 100 nM
[1] = target: T1, human M-CSF (human, UniProt P09603 33-255, limits assumed)
T1 construct: also called M-CSF (human); CSF-1
T1 sequence: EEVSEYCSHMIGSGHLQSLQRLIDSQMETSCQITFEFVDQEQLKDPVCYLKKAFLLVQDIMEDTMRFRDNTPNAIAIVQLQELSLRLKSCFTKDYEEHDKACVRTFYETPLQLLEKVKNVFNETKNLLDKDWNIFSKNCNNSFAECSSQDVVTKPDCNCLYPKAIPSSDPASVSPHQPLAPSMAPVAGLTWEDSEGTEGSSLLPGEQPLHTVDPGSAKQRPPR
Procedure: (§1) For this specificity profiling test the different proteins and controls were coated on two 384-well MSD plates with a concentration of 1 μg/ml at 4° C. over night. Plates were blocked with BSA and washed three times with PBS with 0.05% (v/v) Tween 20. Antibody samples were diluted to 100 nM and 10 nM in assay buffer (PBS with 0.5% (w/v) BSA, 0.05% (v/v) Tween 20). […] Samples and controls were incubated for three hours at room temperature. The plates were washed three times and 30 μl detection antibody (ECL-labeled anti-human Fab) were added per well and incubated for 1 h. After washing, MSD Read Buffer T with surfactant was added and electrochemiluminescence signals were detected using a Sector Imager 6000 (Meso Scale Discovery, Gaithersburg, Md., USA).

[2] = target: Serum albumin (human) (human, UniProt P02768 25-609)
Procedure: as §1

[3] = target: Transferrin (bovine) (bovine, UniProt Q29443 20-704)
Sequence of Transferrin (bovine) (Q29443 20-704 limits assumed): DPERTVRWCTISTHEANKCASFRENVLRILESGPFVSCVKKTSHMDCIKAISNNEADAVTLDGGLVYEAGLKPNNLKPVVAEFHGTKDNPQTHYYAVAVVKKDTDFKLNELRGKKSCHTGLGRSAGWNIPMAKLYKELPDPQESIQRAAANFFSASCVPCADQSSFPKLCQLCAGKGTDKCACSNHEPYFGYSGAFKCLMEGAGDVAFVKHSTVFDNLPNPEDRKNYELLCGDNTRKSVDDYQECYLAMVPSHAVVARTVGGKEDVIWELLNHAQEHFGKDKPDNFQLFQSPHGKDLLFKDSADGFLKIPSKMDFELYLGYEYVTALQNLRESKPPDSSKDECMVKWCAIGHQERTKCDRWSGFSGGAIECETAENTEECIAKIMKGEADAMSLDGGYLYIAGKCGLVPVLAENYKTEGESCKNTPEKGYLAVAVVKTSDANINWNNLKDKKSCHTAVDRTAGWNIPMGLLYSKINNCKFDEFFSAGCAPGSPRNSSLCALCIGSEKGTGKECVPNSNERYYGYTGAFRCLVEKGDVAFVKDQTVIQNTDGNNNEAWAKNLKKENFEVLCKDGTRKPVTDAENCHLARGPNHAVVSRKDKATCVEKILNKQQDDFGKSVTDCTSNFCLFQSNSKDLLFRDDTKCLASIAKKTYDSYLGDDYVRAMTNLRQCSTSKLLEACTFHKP
Procedure: as §1

[4] = target: Antitrypsin (human) (human, UniProt P01009 25-418)
Sequence of Antitrypsin (human) (P01009 25-418 limits assumed): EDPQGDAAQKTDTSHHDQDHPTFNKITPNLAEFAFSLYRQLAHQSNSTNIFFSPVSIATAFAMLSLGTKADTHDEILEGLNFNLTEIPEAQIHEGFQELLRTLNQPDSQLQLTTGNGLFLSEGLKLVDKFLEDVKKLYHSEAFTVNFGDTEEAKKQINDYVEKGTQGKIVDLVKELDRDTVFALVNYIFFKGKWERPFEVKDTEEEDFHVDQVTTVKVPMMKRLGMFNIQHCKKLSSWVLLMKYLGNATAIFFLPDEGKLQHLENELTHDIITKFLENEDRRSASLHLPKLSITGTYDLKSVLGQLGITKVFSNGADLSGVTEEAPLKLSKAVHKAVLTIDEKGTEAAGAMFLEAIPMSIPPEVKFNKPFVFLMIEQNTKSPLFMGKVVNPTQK
Procedure: as §1

[5] = target: Lysozyme (chicken) (chicken, UniProt P00698 19-147)
Sequence of Lysozyme (chicken) (P00698 19-147): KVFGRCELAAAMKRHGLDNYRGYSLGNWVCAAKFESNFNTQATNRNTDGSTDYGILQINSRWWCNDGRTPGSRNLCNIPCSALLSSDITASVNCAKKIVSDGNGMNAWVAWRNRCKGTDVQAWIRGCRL
Procedure: as §1

[6] = target: Cell surface receptor 1 (human) (human)
Procedure: as §1

[7] = target: Cytokine 2 (human) (human)
Procedure: as §1

[8] = target: Cell surface receptor 2 (human) (human)
Procedure: as §1

[9] = target: Cell surface receptor 3 (human) (human)
Procedure: as §1

[10] = target: Pepsinogen (pork) (pork, UniProt P00791 16-385)
Sequence of Pepsinogen (pork) (P00791 16-385): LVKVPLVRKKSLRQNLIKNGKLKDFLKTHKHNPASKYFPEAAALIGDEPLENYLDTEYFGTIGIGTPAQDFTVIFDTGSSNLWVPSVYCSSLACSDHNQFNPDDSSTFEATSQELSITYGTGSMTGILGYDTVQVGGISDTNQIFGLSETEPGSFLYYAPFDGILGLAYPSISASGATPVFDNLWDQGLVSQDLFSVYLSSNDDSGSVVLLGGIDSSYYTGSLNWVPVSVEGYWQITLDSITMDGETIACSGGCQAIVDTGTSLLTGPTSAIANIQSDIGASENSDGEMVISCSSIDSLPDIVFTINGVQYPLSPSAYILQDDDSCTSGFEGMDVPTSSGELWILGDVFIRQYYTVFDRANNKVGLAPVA
Procedure: as §1

[11] = target: Aminogylcosidase (Aspergillus niger) (Aspergillus niger)
Sequence of Aminogylcosidase (Aspergillus niger) (Aspergillus niger) (P69328 25-640): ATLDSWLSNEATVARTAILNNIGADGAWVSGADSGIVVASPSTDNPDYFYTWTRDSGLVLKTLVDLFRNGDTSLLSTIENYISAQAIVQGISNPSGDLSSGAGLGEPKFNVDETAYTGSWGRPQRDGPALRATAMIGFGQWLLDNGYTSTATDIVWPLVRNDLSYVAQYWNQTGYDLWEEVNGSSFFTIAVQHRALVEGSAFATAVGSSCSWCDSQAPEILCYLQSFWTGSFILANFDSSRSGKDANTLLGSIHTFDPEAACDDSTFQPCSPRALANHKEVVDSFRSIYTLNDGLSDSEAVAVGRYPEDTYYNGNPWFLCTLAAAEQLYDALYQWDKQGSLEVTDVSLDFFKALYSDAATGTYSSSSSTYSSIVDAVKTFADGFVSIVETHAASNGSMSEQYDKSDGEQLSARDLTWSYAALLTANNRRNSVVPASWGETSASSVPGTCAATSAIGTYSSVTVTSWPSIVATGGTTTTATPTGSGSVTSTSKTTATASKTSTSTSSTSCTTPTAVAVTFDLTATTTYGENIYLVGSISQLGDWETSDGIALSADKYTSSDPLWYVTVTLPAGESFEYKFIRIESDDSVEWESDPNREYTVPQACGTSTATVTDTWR
Procedure: as §1

[12] = target: Trypsin inhibitor (Soybean) (Soybean)
Sequence of Trypsin inhibitor (Soybean) (Soybean) (P01070 25-205): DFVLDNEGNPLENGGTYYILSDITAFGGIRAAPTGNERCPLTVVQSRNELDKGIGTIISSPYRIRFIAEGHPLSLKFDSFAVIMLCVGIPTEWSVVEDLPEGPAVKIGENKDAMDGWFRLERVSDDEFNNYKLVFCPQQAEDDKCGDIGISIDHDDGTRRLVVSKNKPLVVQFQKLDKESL
Procedure: as §1

[13] = target: Cytochrome c (cow) (cow, UniProt P62894 2-105)
Sequence of Cytochrome c (cow) (P62894 2-105 limits assumed): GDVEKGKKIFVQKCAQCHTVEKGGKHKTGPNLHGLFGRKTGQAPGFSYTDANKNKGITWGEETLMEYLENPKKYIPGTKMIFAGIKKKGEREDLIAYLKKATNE
Procedure: as §1

[14] = target: Myoglobin (horse) (horse, UniProt P68082 2-154)
Sequence of Myoglobin (horse) (P68082 2-154 limits assumed): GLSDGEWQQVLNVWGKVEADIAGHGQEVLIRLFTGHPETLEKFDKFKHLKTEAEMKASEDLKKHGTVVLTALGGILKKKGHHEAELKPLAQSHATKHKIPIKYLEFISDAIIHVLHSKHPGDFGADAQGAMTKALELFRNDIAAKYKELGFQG
Procedure: as §1

[15] = target: T2, Ovalbumin (chicken) (chicken, UniProt P01012 2-386)
T2 sequence (looked up): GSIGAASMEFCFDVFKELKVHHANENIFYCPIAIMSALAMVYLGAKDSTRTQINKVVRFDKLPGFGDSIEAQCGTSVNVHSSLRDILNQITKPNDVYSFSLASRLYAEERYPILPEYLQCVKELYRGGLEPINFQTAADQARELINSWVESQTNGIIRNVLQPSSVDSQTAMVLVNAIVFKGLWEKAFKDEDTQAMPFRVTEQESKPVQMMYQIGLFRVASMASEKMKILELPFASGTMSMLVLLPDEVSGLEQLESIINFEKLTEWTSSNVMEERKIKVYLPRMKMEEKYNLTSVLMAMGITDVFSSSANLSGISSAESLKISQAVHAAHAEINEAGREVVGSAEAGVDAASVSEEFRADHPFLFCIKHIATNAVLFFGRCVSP
Procedure: as §1

[16] = target: T3, Trypsinogen (cow) (cow, UniProt P00760 18-246)
T3 sequence (looked up): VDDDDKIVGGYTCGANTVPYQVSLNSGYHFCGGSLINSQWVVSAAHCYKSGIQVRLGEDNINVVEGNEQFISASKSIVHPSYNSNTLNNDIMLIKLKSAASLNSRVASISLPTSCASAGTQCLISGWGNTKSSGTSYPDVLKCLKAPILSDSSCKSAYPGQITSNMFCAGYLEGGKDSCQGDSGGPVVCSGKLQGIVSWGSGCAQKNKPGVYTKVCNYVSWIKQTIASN
Procedure: as §1

[17] = target: T4, RNase B (cow) (cow, UniProt P61823 27-150)
T4 sequence (looked up): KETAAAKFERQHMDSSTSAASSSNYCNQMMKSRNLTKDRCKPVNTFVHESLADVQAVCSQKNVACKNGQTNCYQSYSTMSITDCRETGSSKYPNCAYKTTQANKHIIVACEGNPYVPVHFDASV
Procedure: as §1

[18] = target: T5, RNase A (cow) (cow, UniProt P61823 27-150)
T5 sequence (looked up): T4 sequence (looked up)
Procedure: as §1

[19] = target: Anti-human Fab (Dianova, # 109-005-097)
Procedure: as §1

[20] = target: Anti-human Fc (Dianova, #109-005-098)
Procedure: as §1

B1: Camille (format not stated) (antibody, V domains shown)
VH: QVQLQQSGPGLVKPSQTLSLTCAISGESVSTSSAAWNWIRQSPSRGLEWLGRTYYRSKWKHEYAVSVKSRITINPDTSKNQFSLQLNSVTPEDTAVYYCARDRYYYSAFDYWGQGTLVTVSS
VL: QSALTQPASVSGSPGQSITISCTGTSSDVGGYNSVSWYQQHPGKAPKLLIYAVSNRPSGVSNRFSGSKSGNTASLTISGLQAEDEADYYCASYDERFTRVFGGGTKLTVLG
notes: also called Antibody Camille
signal normalized to reference antibody MOR03207 [1]: 24 ratio | signal normalized to reference antibody MOR03207 [2]: 1 ratio | signal normalized to reference antibody MOR03207 [3]: 1 ratio | signal normalized to reference antibody MOR03207 [4]: 1 ratio | signal normalized to reference antibody MOR03207 [5]: 0 ratio | signal normalized to reference antibody MOR03207 [6]: 1 ratio | signal normalized to reference antibody MOR03207 [7]: 2 ratio | signal normalized to reference antibody MOR03207 [8]: 1 ratio | signal normalized to reference antibody MOR03207 [9]: 1 ratio | signal normalized to reference antibody MOR03207 [10]: 1 ratio | signal normalized to reference antibody MOR03207 [11]: 1 ratio | signal normalized to reference antibody MOR03207 [12]: 1 ratio | signal normalized to reference antibody MOR03207 [13]: 1 ratio | signal normalized to reference antibody MOR03207 [14]: 1 ratio | signal normalized to reference antibody MOR03207 [15]: 1 ratio | signal normalized to reference antibody MOR03207 [16]: 1 ratio | signal normalized to reference antibody MOR03207 [17]: 1 ratio | signal normalized to reference antibody MOR03207 [18]: 1 ratio | signal normalized to reference antibody MOR03207 [19]: 1 ratio | signal normalized to reference antibody MOR03207 [20]: 1 ratio
